Test results from publication PMC9769723.

What was measured:
[1] = target: Trichococcus flocculiformis photolyase (TfPHR), class 2 cyclobutane pyrimidine dimer (CPDII) photolyase (Trichococcus flocculiformis); assay: shift of the absorption spectrum of the rhodopsin after mixing; purified TfHeR and TfPHR mixed at a 1:4 molar ratio, time-dependent absorption spectra (UV-2450 spectrometer)
[2] = target: Trichococcus flocculiformis photolyase (TfPHR), class 2 cyclobutane pyrimidine dimer (CPDII) photolyase (Trichococcus flocculiformis)
[3] = target: Trichococcus flocculiformis photolyase (TfPHR), class 2 cyclobutane pyrimidine dimer (CPDII) photolyase (Trichococcus flocculiformis); assay: ITC; MicroCal ITC200; both proteins in sonication buffer (150 mM NaCl, 50 mM Tris-HCl pH 7.0) with 0.02% DDM; which protein was in the syringe is not given
[4] = target: NpSRII (Natronomonas pharaonis) (UniProt P42196); settings: cited from earlier work
Chain of UniProt P42196 (P42196 whole entry): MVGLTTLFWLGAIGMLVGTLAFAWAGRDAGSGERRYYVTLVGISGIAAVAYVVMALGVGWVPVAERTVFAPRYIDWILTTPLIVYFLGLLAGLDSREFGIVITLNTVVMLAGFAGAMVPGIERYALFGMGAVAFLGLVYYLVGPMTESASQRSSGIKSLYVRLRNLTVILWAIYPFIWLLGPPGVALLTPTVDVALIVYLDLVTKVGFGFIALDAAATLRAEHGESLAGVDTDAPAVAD

| shift of the absorption maximum after mixing (blue shift) [1] [nm] | Kd [3] [µM] | dH [3] [kJ/mol] | Substance | in vitro repair of UV-damaged oligo(dT)20 by TfPHR under white light (absorbance at 265 nm), with TfHeR against TfPHR alone, at saturation [2] [fold] | Kd [4] [nM] |
| --- | --- | --- | --- | --- | --- |
| 8 | 22 | -78.8 | Trichococcus flocculiformis heliorhodopsin (TfHeR) (natural protein) | 3 | – |
| – | – | – | NpHtrII (from UniProt P42259) | – | 650 |
| 4 | 121 | – | TfHeR E97Q mutant (natural protein) | – | – |
